Measurements as given in the supplement of paper PMC9170038.

Test system: MS2 coat protein
Experiment: apparent KD of MS2 coat protein; designed switch direction (-1 OFF switch, 1 ON switch): -1; higher = weaker reporter binding
In short: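 RNA switches sharing common flanks were transcribed by stalled E. coli RNA polymerase on Illumina chips. A doubling series of SNAP-549-labelled MS2 coat protein, from 0.7 or 1.5 nM to 3 µM, was applied in Tris-HCl pH 7.5 buffer with KCl, MgCl2, BSA, DTT, tRNA and Tween-20. Each step lasted 0.8–1.5 h at the bottom of the series and 10–20 min at the top. Normalised cluster fluorescence was curve-fitted, giving apparent KD as the per-design median over clusters.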

[1] = input ligand: microRNA oligo, concentration not stated
[2] = Eterna round: R95, input ligand: FMN 200 uM
[3] = Eterna round: R95, input ligand: microRNA oligo, concentration not stated
[4] = Eterna round: R95, input ligand: none

| Sequence | apparent KD of MS2 coat protein (input ligand: FMN 200 uM) [nM] | apparent KD of MS2 coat protein [1] [nM] | apparent KD of MS2 coat protein (input ligand: none) [nM] | apparent KD of MS2 coat protein [2] [nM] | apparent KD of MS2 coat protein [3] [nM] | apparent KD of MS2 coat protein [4] [nM] |
| --- | --- | --- | --- | --- | --- | --- |
| GGUAGAGUGGUAGGAUAUCCGUCUGUUUCAGUCGGAGAAGGACCACAGUCACUGGGUCCUAAUAUGGGUGACCAUGUAUCUACC [pwkr exNG1 F6.11] (Eterna round: R96, puzzle: Exclusion NG 1) | 1340 | 279 | 348 | – | – | – |
| GGUAGUAUGAGUAGUCCUCAUUGAAGAGAUUGGUAAGAUACAUGAGGAUCACCCAUGUUUGAACAAGCUUUUGCUCA [JR_Sv3TOV2_Sub006] (puzzle: Sensor v3, turn-off variant 2) | – | – | – | 141 | 53 | 298 |
| GGUAGUAUGAGUAGUCCUCAUUGAAGAGAUUGGUAAGAUACAUGAGGAUCACCCAUGUUUGAACAAGCUUUUGCUCU [JR_Sv3TOV2_Sub007] (puzzle: Sensor v3, turn-off variant 2) | – | – | – | 87.1 | 25.9 | 82.8 |
| GGUAUAUGAGGAUAUAGAUUCCUCGACAUGAGGAUCACCCAUGUAAGAUUGGGCCUAGAACUAGAAGGCGUGGCUU [Eternabot (L1) Solution 77] (Eterna round: R97, puzzle: Exclusion 5) | 72.1 | – | 128 | – | – | – |
| GGUCAAGAACAGAUCCGCGCUGCCAUUGACCGCUCAUUUACAUGAGGAUCACCCAUGUUUUUUGCUCGUCUUACUAC [Edesso] (puzzle: Sensor v3, turn-off variant 2) | – | – | – | 20.8 | 61.4 | 19.3 |
| GGUCAAGAACAGAUCCGCGCUGCCCUCGACCGCUCAUUUACAUGAGGAUCACCCAUGUUUUUUGCUUGUCUUGUUAC [Vezageis] (puzzle: Sensor v3, turn-off variant 2) | – | – | – | 17.2 | 57 | 17.1 |
| GGUCAAGAACAGCGCCGCGCUGCCCUUGACCGCUCAUUUACAUGAGGAUCACCCAUGUUUUUUGCUUGUCUUGUUUC [Tiordiri] (puzzle: Sensor v3, turn-off variant 2) | – | – | – | 20.6 | 101 | 23.7 |
| GGUCAAGGACAGCUCCGCGCUGCCCUUGACCGCUCAUUUACAUGAGGAUCACCCAUGUUUUUUGCUUGUCUUGUUUC [Atedorgela] (puzzle: Sensor v3, turn-off variant 2) | – | – | – | 20 | 110 | 24.2 |
| GGUCAGACGGUAGGAUAUUCAUAUCGAGUGACCCUUUCAUAACAUGAGGAUCACCCAUGUCGGUGGGAGAAGGGCCGUACGGCG [salish99_ExNG02_R04_008] (Eterna round: R96, puzzle: Exclusion NG 2) | 41 | 31.9 | 33.6 | – | – | – |
| GGUCAGAUGGUAGGAUAUCCAUAUCGAGUGACCCUUUCAUAACAUGAGGAUCACCCAUGUCGGUGGGAGAAGGGCCGUACGGCG [salish99_ExNG02_R04_010] (Eterna round: R96, puzzle: Exclusion NG 2) | 43.9 | 32.8 | 41.7 | – | – | – |
| GGUCAGAUGGUAGGAUAUUCAUAUCGAGUGACCCUUUCAUAACAUGAGGAUCACCCAUGUCGGUGGGAGAAGGGCCGUACGGCG [salish99_ExNG02_R04_014] (Eterna round: R96, puzzle: Exclusion NG 2) | 26.9 | 29.3 | 50.7 | – | – | – |
| GGUCAUCAAGUCAGGAUAUCGUCAAAUCAAUCAGGCGAGAAGGGACAUGAGGAUCACCCAUGUCGACUCAUCAC [Ex4 #4] (Eterna round: R97, puzzle: Brourd's mod of Exclusion 4) | 117 | – | 31.2 | – | – | – |
| GGUCCGAGUGUGAGGAUAUGCUGGUCCUUGGAUCAGCAGAAGGCACAUGAGGAUCACCCAUGUGAAGACGGACC [Mat - Exclusion 4 - Eli Mod - D30] (Eterna round: R97, puzzle: Brourd's mod of Exclusion 4) | 537 | – | 91.5 | – | – | – |
| GGUCGUAUGAGUAGUCCUCAUUGAAGAGAUUGGUAAGAUACAUGAGGAUCACCCAUGUUUGAACAAGCUUUUGCUCU [JR_Sv3TOV2_Sub008] (Eterna round: R96, puzzle: Sensor v3, turn-off variant 2) | 159 | 54.3 | 118 | – | – | – |
